Read-outs that look alike come from different tables or passages of the source.
Legend:
[1] = Conventional renal scintigraphy (renogram) with radionuclide-bound tracers (FIG. 1)
Source text: FIG. 1 is a low-resolution renogram of a patient using conventional radionuclide-bound tracer ^99mTc DTPA with renal scintigraphy.

[2] = Renal histology (immunofluorescence) and renal tubular handling of the carriers (FIGS. 3, 4); details: ^99mTc/HYNIC-labelled carriers
[3] = test system: FcRn; assay: Binding of Fc to FcRn on renal tubular epithelial cells; type: in vivo; details: surface of renal tubular epithelial cells
[4] = mouse, in vivo
[5] = not given; remark: listed apart in the source
[6] = not given; remark: listed apart in the source
[7] = steady state, from 45 min onward, FIG. 8A

O=C([O-])CN(CCN(CC(=O)[O-])CC(=O)[O-])CCN(CC(=O)[O-])CC(=O)[O-].[99Tc+4] [^99mTc DTPA, ^99mTc Diethylenetriamine-Pentaacetic Acid]
time to wash out of the system [1]: ≤ 20 min

Fc: imaging agent using ^99mTc as detection moiety, HYNIC as chelation moiety, and Fc alone as carrier moiety [reference compound]
renal tubular handling / fate of the carrier [2]: reenters blood circulation via peritubular capillaries | FcRn binding [3]: binds the FcRn on the surface of renal tubular epithelial cells

PBT-Fc carrier moiety: N-terminal His6 tag, PBT from human VEGFA (amino acids 131-163), and Fc of human IgG1, expressed in E. coli
distribution of the probe in renal histology (immunofluorescence) [4]: mainly in the tubular basement membrane

^99mTc/HYNIC/PBT-Fc: ^99mTc as the detection moiety, HYNIC as the chelation moiety, and PBT-Fc as the carrier moiety
intrarenal localization (section view) (FIG. 8B): localization of PBT-Fc to the kidney cortex | ^99mTc signal in liver and bladder [7]: low levels of signal accumulation in the liver and the bladder | ^99mTc signal in the kidney [7]: concentrated in the kidney | renal tubular handling / fate of the carrier [2]: “trapped” in the tubular basement membrane (TBM) | time the agent stayed in the subject's system for steady state imaging ([5]; FIG. 7): 60 min | renal fate / urinary excretion of the agent ([5]; FIG. 7, steady state): concentrated in the kidney without being excreted into urine | kidney retention compared with Fc-alone and Duramycin agents ([5]; FIGS. 6 and 7): accumulate and remain the kidneys of the subjects for much longer than that of the Fc-alone and Duramycin agents | renal fate / urinary excretion of the agent ([6]; after administration to test subjects): fixed (e.g., permanently) at the basement membrane of the downstream renal tubules without being further excreted into urine | time after which radio signals accumulated in the kidney reach the plateau ([6]; glomerular filtration phase, tail vein injection): 10 to 20 min

Reference: US11666671B2, “Spatial mapping of kidney functions” (Northwestern University, priority 2018, dated 2023)
